From patent publication US20260209387A1, “SINGLE-DOMAIN ANTIBODY FOR INHIBITION OF NEUTROPHIL ELASTASE ACTIVITY” (UNIVERSITE DE LIEGE, priority 2023, published 2026)

Tests used:
human cathepsin G (hCG) = molecular target: T1, human cathepsin G (hCG) (Homo sapiens, UniProt P08311); test: hCG inhibition, substrate N-Succinyl-Ala-Ala-Pro-Phe p-nitroanilide; assay type: biochemical; conditions: chromogenic substrate
T1 construct: purchased Calbiochem
T1 sequence (P08311 21-244): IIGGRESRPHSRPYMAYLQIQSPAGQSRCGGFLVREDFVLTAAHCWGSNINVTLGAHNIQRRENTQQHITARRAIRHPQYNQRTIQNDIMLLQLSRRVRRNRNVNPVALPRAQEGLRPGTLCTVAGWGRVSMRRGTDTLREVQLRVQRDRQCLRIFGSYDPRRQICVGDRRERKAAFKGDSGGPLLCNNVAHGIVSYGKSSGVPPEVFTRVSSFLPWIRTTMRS
Source text: To determine whether NbE201 was specific for hNE, we first investigated its ability to inhibit several serine proteases: pancreatic elastase from pork (pPE, 39.2% sequence identity, from Sigma), mice neutrophil elastase (mNE, 74.9% sequence identity, from EPC) and with two other human serine proteases present in the lung: proteinase 3 (hPR3 from EPC, 54.7% sequence identity) and cathepsin G (hCG from Calbiochem, 36.7% sequence identity). The substrate used were Succinyl-Ala-Ala-Ala-paraNitroAnilide (1 mM in 0.1 M Tris pH 7.5 with NaCl 0.5 M and NaN3 0.01%, % w/v from Sigma-Aldrich) for pPE, MeOSuc-Ala-Ala-Pro-Val-AMC (100 μM in Tris 50 mM, NaCl 1 M, 0.05% (% w/v) Brij-35, pH 7.5) for mNE, N-Succinyl-Ala-Ala-Pro-Phe p-nitroanilide (0.45 mM in 100 mM HEPES pH 7.5, from Sigma Aldrich) for hCG and Boc-Ala-Ala-Nva-SBzl (0.22 mM in 100 mM MOPS pH 5.0 0.5 M NaCl, 100 μM DTNB, DMSO 10%, from EPC) for PR3. mNE (rmELA2 from R&D systems, United Kingdom) was first activated according to the supplier information. In brief, mNE was incubated with recombinant mouse active cathepsin C/DPPIy (rmCathepsin C from R&D systems) in MES 50 mM, NaCl 50 mM, pH 5.5 for 2 h at 37° C. The enzyme concentration in the assay was 6 nM, 14.7 nM, 25 nM, 5 nM for PPE, mNE, hCG and hPR3, respectively. Different molar ratios of NbE201: Enzyme were tested. […]

[1] = molecular target: T2, porcine pancreatic elastase (pPE) (Sus scrofa, UniProt P00772); test: BLI binding to other serine proteases: pPE; conditions: 50 nM protease
T2 construct: purchased Sigma
Protocol: The specificity of NbE201 for hNE was also investigated by BLI. Biotinylated NbE201 (10 μg/mL) was immobilized on streptavidin biosensors (SA, Sartorius) following provider's indications. The biosensors were then immersed in a 50 nM solution of a serine protease. The proteases tested were human cathepsin G (hCG), human proteinase 3 (hPR3), mouse pancreatic elastase (mPE), mouse neutrophil elastase (mNE) and porcine pancreatic elastase (pPE). hNE was used a positive control. The association and dissociation were measured for 70 s and 320 s respectively, in kinetic buffer (KB, Sartorius). The experiments were carried out at 30° C. in 384-wells black-bottom microplates in polypropylene (Greiner Bio-One, Belgium) and with orbital agitation (1000 rpm).

[2] = Urea-induced unfolding (intrinsic fluorescence, far UV-CD); assay type: physicochemical; conditions: pH 7, 25° C.
Protocol: 1.11.1. Preparation of the samples. Samples of NbE201 were incubated overnight at 25° C. in the presence of increasing concentrations of urea (Sigma-Aldrich) in 0.05 M NaP buffer pH 7. The protein concentration was 0.2 mg mL-1. The denaturant concentration in each sample was determined from refractive index measurements (Pace, C. N., 1986, doi.org/10.1016/0076-6879 (86) 31045-0), using a R5000 hand refractometer from Atago (Tokyo, Japan). The same samples were used to measure both the intrinsic fluorescence and far ultraviolet circular dichroism (UV-CD) spectra. Blank samples (without the Nb) every 1 M urea were prepared to make a reference curve that was used to correct the contribution of (buffer+urea) for fluorescence and circular dichroism (CD) signal at each urea concentration.
1.11.2. Measurements of fluorescence and far-UV-CD signals/spectra. Intrinsic fluorescence spectra to monitor changes in the tertiary structure were recorded at 25° C. from 305 nm to 440 nm after excitation at 280 nm with 5 nm excitation and emission slits using a Cary Eclipse Fluorimeter (Agilent, Santa Clara, USA) equipped with a thermostatically controlled multi-cuvette holder and a 10*0.4 mm pathlength quartz micro cuvette. The voltage applied at the detector was 710 V. Data acquisition was made every 0.5 nm with a scan rate of 30 nm·min^−1.
Far UV-CD spectrum of the native and denatured states (i.e. in 9 M urea) were recorded from 190 nm to 260 nm in a 0.2 mm pathlength quartz cuvette at 25° C. […] were recorded with a 0.1 nm data interval, a data pitch of 0.1 nm, 2 s integration time, a bandwidth of 1 nm and a scanning speed of 50 nm/min. The unfolding transitions were monitored by far UV-CD at 207 nm in a 0.2 mm pathlength quartz cuvette. At each denaturant concentration, 37 data points were acquired with a 1 nm bandwidth, a reading frequency of 5 s and a 4 s integration time, and averaged. The measurements were carried out with Jasco J-810 spectropolarimeter, (JASCO, Lisses, France) equipped with a Peltier cell holder.
1.11.3. Data analysis. The intrinsic fluorescence spectra were fitted using a five parameter Weibull function (from software SigmaPlot 5.0) to determine the wavelength corresponding to the highest fluorescence intensity (λmax). The changes in fluorescence intensity at 337 nm were also used to monitor the unfolding transition. The transition curves obtained were analyzed based on a two-state (N ? U) model according to Dumoulin et al. (doi: 10.1110/ps.34602) and equation 1:
where x is the concentration in denaturant and a=(ΔG°NU(H2O)−m*[D])/RT, and yobs is the monitored signal (i.e. λmax, F337 nm or CD207 nm) at a given denaturant concentration, and YN and YU are the values of these signals for the native and denatured states, respectively in the absence of denaturant. ΔG°NU(H2O) is the difference in free energy between the folded and unfolded states at 25° C.; m is a measure of the dependence of the free energy on the denaturant concentration, and [D] is the denaturant concentration. p and q are the slopes of the pre- and post-unfolding baselines, respectively, R is the gas constant, and T is the absolute temperature. Cm, the denaturant concentration at the midpoint of the denaturation curve ([U]/[N]=1) is defined as ΔG°NU(H2O)/m.

T2 sequence (P00772 27-266): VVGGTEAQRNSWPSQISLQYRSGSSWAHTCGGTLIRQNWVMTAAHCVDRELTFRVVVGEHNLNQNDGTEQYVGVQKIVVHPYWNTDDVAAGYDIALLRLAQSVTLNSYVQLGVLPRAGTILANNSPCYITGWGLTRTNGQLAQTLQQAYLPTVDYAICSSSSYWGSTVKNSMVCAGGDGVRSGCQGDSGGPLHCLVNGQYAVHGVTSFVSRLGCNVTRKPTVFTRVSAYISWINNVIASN

B1: NbE201: anti-hNE ISVD (VHH/nanobody) from immunized lama, amino acid sequence SEQ ID NO: 4 (protein)
VHH: QVQLQESGGGLVQAGGSLRLSCVVPGRTISLYRMGWFRQAPGKEREFVAGINWSGDMTDYVDSVKGRFTISRDNAKNTVYLEMNSLKPEDTAIYYCTADPKLLPLADSSYGYWGQGTQVTVSS
Human cathepsin G (hCG)
  inhibition of human cathepsin G: does not inhibit
[1]
  binding to pPE by BLI: does not bind to the other proteases
[2]; CD
  Cm: 5.8 M
  m: 7.7 kJ · mol^−1 M^−1
  ΔG°NU(H2O): 10.6 kcal/mol
[2]; F (337 nm)
  Cm: 5.8 M
  m: 6.7 kJ · mol^−1 M^−1
  ΔG°NU(H2O): 9.32 kcal/mol
[2]; F (λmax)
  Cm: 6.0 M
  m: 6.5 kJ · mol^−1 M^−1
  ΔG°NU(H2O): 9.35 kcal/mol
[2]; Mean ± SD of the three probes
  Cm: 5.9 ± 0.1 M
  m: 7.0 ± 0.5 kJ · mol^−1 M^−1
  ΔG°NU(H2O): 9.75 ± 0.598 kcal/mol
